Measured values published in publication PMC3623829.

What was measured:
[1] = biological target: HIV-1 CA (capsid protein) M68C/E212C (HIV-1); test: cross-linking; spontaneous disulfide crosslinking of engineered cysteines in virions; viruses pelleted through 20% sucrose (100,000 x g, 30 min), dissolved in SDS sample buffer without beta-mercaptoethanol, 95°C 5 min, SDS-PAGE, immunoblot with rabbit polyclonal anti-CA antibody
[2] = biological target: HIV-1 CA (capsid protein) Q63C/Y169C (HIV-1); test: as above

Row | Substance | stoichiometry N [1] | stoichiometry N [2]
1 | HIV-1 CA (capsid protein) M68C/E212C (natural protein) | 6 | 
2 | HIV-1 CA (capsid protein) Q63C/Y169C (natural protein) |  | 6
